Measurements reported in patent US20150352207A1, “USE OF ANTIBODIES AGAINST ICAM-1 IN COMBINATION WITH AN ANTI CANCER DRUG IN THE TREATMENT OF PATIENTS” (BIOINVENT INTERNATIONAL AB, priority 2013, published 2015).
Where two headings read alike, the source gives them in different places.

Tests used:
Daudi cells = assay: Subcutaneous scid/Daudi non-Hodgkin lymphoma xenograft; format: in vivo, scid mice; settings: twice weekly i.p. from day 1
NCI-H929 myeloma cells = assay: Subcutaneous scid myeloma xenograft, NCI-H929; format: in vivo, scid mice; settings: 2 mg/kg twice weekly
Protocol: Antibody treatment with 2 mg/kg B11 or control IgG1 was started at Day 1 and was continued on a twice-weekly intraperitoneal dosing regimen. Mice were sacrificed when tumor sizes reached the ethical limit.

[1] = test system: B lymphoma cell line (CL-01); assay: Antibody-dependent cell-mediated cytotoxicity (ADCC) with natural killer effector cells; format: cell-based; settings: human Natural Killer effector cells
Excerpt: Buffy coats from human donors (ordered through Blodcentralen, Lund) were used to isolate peripheral blood mononuclear cells (PBMCs), and subsequently NK cells. Briefly, peripheral blood components were separated using Ficoll Paque PLUS (Amersham Biosciences, Sweden) in LeucoSep tubes (Greiner Bio-One). The PBMC fraction was removed and thoroughly washed in ice-cold DPBS (Invitrogen), before magnetic labeling and separation of the NK cell population using positive or negative NK cell isolation kits and MACS LS columns (Miltenyi Biotec). The purity of the obtained NK cell fractions was analyzed using flow cytometry, after staining with α-CD56 antibodies (BD Biosciences). Target cells were harvested, and incubated in medium with or without the respective antibodies (2 μg/mL) for 60 min on ice. Cells were thereafter washed and resuspended in cold medium before dispension into FACS tubes. Subsequently, isolated NK cells were diluted in ADCC medium and dispensed together with the respective antibody-coated target cells at varying effector/target cell ratios (40:1, 20:1, 5:1 and 1:1). All experiments were performed in triplicates. After completed incubation ToPo-Pro-3 dye and counting beads (Invitrogen) were added and cells were analyzed for membrane permeabilization using flow cytometry.

Daudi lymphoma cells = assay: Programmed cell death (PCD) assay, Daudi cells; format: cell-based
Protocol: (§1) Target cells were seeded in 96-well culture plates at a density of 2×10^6 cells/mL culture medium. Titrated concentrations of IgG1 B11 or different negative and positive control antibodies were added to the cells, in the absence or presence of anti-human Fab fragment (Jackson ImmunoResearch) for cross-linking. The cells were then incubated for 16 hours at 37° C. in a humidified atmosphere of 5% CO2. The cells were harvested and stained for Annexin V-488/Propidium Iodide (Invitrogen, Sweden) and analysed using flow cytometer (FACS Calibur, BD Bioscience).

peripheral blood B cells = assay: PCD in normal peripheral blood B cells; format: cell-based; settings: resting or activated peripheral blood B cells
Protocol: as §1

[2] = test system: HUVEC, HMVEC or peripheral blood B cells; assay: CDC of normal ICAM-1 expressing cells; format: cell-based
Protocol: Target cells were harvested and incubated in RPMI medium with antibodies at 5 μg/mL or at titrated concentrations between 0.01-100 μg/mL for 60 min on ice. Cells were thereafter washed and resuspended in cold medium before dispension into flow cytometry tubes. Treatments were performed in triplicates. Human serum, normal or heat-inactivated, (Sigma, Sweden) was added to tubes and the samples were incubated for 2 h at 37° C. After completed incubation ToPo-Pro-3 was added at a final concentration of 0.3 μM and cells were analyzed for membrane permeabilization using flow cytometry.

[3] = Serum antibody levels of treated xenografted mice (ELISA); format: in vivo; settings: serum at end of experimentation
Protocol: We next performed a dose-titration experiment to establish IgG B11 in vivo potency and the minimal dose achieving maximal anti-tumor activity, using the scid/ARH-77 model system. […] Mouse serum antibody trough concentrations were determined by ELISA at the end of experimentation. Trough antibody concentrations were then plotted against percent of maximal in vivo anti-tumour activity, and against percent of maximal ICAM-1 receptor occupancy and tumour cell PCD at corresponding antibody concentrations in vitro (FIGS. 3C, 3D, 3E, 3F and 3G). Strikingly, a near perfect correlation between antibody concentration and in vitro tumour cell receptor occupancy, in vitro tumor cell PCD, and in vivo anti-tumour activity was observed, consistent with ICAM-1 dependent direct cell cytotoxicity underlying in vivo anti-tumour activity.

recombinant human ICAM-1 = recombinant human ICAM-1 (Homo sapiens, UniProt P05362); assay: ELISA binding to recombinant human ICAM-1, ICAM-2 or ICAM-3; settings: versus ICAM-2, ICAM-3
ARH-77 xenograft tissues = settings: compared to control IgG, untreated and rituximab-treated mice
Protocol: (A) ARH-77 cells were injected subcutaneously into the left flank of SCID mice (n=8 per group). Mice were treated with the different B11 isotypes twice weekly. […] Statistical significance was calculated relative to control antibody treatment using Kruskal-Wallis Test (Nonparametric ANOVA) with Dunn's Multiple Comparisons Test. Statistical significance was considered for *p<0.05, **p<0.01, and ***p<0.001.

Sequence of recombinant human ICAM-1 (P05362 28-532): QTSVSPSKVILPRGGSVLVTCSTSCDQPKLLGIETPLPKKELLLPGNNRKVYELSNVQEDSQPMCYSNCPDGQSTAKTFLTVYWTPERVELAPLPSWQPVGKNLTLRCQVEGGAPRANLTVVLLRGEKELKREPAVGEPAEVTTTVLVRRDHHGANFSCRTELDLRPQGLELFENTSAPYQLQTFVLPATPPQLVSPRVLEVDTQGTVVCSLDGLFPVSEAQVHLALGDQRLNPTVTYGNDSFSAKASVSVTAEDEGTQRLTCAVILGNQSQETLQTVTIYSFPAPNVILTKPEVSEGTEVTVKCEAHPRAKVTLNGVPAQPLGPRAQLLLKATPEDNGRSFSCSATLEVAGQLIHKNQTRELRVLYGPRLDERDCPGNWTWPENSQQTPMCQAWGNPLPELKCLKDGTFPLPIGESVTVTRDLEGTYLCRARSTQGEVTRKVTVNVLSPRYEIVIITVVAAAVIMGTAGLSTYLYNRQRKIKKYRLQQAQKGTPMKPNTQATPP

B1: IgG B11: novel human ICAM-1 antibody targeting the B11 epitope, isolated from the naïve antibody library n-CoDeR (antibody, V domains shown)
VH: EVQLLESGGGLVQPGGSLRLSCAASGFTFSNAWMSWVRQAPGKGLEWVAFIWYDGSNKYYADSVKGRFTISRDNSKNTLYLQMNSLRAEDTAVYYCARYSGWYFDYWGQGTLVTVSS
VL: QSVLTQPPSASGTPGQRVTISCTGSSSNIGAGYDVHWYQQLPGTAPKLLIYDNNNRPSGVPDRFSGSKSGTSASLAISGLRSEDEADYYCQSYDSSLSAWLFGGGTKLTVLG
modifications: B11 antibody variable H region; B11 antibody variable L region
Q: With B1 as the molecule, how does the “survival of tumor bearing mice” value (Daudi cells) read?
A: prolonged survival of tumor bearing mice

Q: And the tumor growth (Daudi cells)?
A: significantly and equally efficaciously compared to rituximab, prevented tumor growth

Q: And the “reduction of myeloma tumor growth” value (NCI-H929 myeloma cells)?
A: 99%

Q: And the “ADCC of target tumor cells” value ([1]; listed as B11)?
A: mediated FcγRIIIA-dependent ADCC

Q: What about the “ADCC of target tumor cells” value ([1]; listed as IgG B11 IgG1) of the same molecule?
A: mediated ADCC of target tumor cells

Q: And the PCD-induction (Daudi lymphoma cells; ICAM-1 expressing Daudi lymphoma cells)?
A: dose dependent PCD-induction

Q: And the “programmed cell death by immobilised antibody” value (Daudi lymphoma cells; antibody immobilised by either coating protocol, data not shown)?
A: induced programmed cell death

Q: What about the “programmed cell death of normal B cells” value (peripheral blood B cells) of the same molecule?
A: did not, however, induce PCD

Q: And the “programmed cell death of normal B cells” value (peripheral blood B cells; listed as B11)?
A: not significantly affected

Q: What about the “CDC of normal cells” value [2] of the same molecule?
A: did not confer ADCC or CDC

Q: And the “CDC of normal cells” value ([2]; listed as B11)?
A: not significantly affected

Q: And the “In vivo IgG Levels” value ([3]; Dose 0.02 mg/kg)?
A: 0.06 ± 0.02 µg/mL

Q: And the “In vivo IgG Levels” value ([3]; Dose 0.2 mg/kg)?
A: 1.2 ± 0.4 µg/mL

Q: And the “In vivo IgG Levels” value ([3]; Dose 2 mg/kg)?
A: 20 ± 2.9 µg/mL

Q: And the “specificity for ICAM-1” value (recombinant human ICAM-1)?
A: high specificity

Q: What about the “F4/80 positive host effector cell (macrophage) infiltration of tumor tissue” value (ARH-77 xenograft tissues) of the same molecule?
A: massive influx

Q: And the “F4/80 positive host effector cell (macrophage) infiltration of tumor tissue” value (ARH-77 xenograft tissues; listed as B11)?
A: significantly increased
